Residue numbers refer to the chain shown, from its start. Names may count otherwise.
B1: anti-cTnT Fab mutant 22 (F60W, Y104F) (Fab, V domains shown)
VH: EVQLQQSGPELVKPGASVKMSCKASGYTFTDYYMKWVKQSHGKSLEWIGDINPNNGETWYNQKFKDKATLTVDKSSSTAYMQLNSLTSEDSAVYYCATRVFDFWGQGTTLTVSS
VL: DIVLTQSPASLAVSLGQRATISCKASQSVDYDGTSYMNWFQQKAGQPPKRLIYAASNLESGIPARFSGRGSGTDFALNIHPVEEEDAATYYCQQSNEDPYTFGGGTKLEIK
notes: also called combination 22
B2: parental anti-cTnT Fab fragment (wildtype TnT M-7 Fab, from antibody 12.1A11.11-7) (Fab, V domains shown)
VH: B1 VH with W59F, F103Y
VL: B1 VL
notes: also called wildtype Fab; TnT M-7 (wildtype) Fab
B3: anti-cTnT Fab mutant 21 (F60W, V101Y) (Fab, V domains shown)
VH: B1 VH with V100Y, F103Y
VL: B1 VL
notes: also called combination 21
B4: anti-cTnT Fab mutant 4 (Y34F, F60W, Y104F) (Fab, V domains shown)
VH: B1 VH with Y33F
VL: B1 VL
notes: also called combination 4
B5: anti-cTnT Fab mutant 1 (Y34F) (Fab, V domains shown)
VH: B1 VH with Y33F, W59F, F103Y
VL: B1 VL
notes: also called combination 1
B6: anti-cTnT Fab mutant 5 (Y34F, F60W, V101Y + Y104F) (Fab, V domains shown)
VH: B1 VH with Y33F, V100Y
VL: B1 VL
notes: also called combination 5
B7: anti-cTnT Fab mutant 19 (Y104F) (Fab, V domains shown)
VH: B1 VH with W59F
VL: B1 VL
notes: also called combination 19
B8: anti-cTnT Fab mutant 17 (F60W) (Fab, V domains shown)
VH: B1 VH with F103Y
VL: B1 VL
notes: also called combination 17
B9: anti-cTnT Fab mutant 11 (Y34I, F60W, V101Y) (Fab, V domains shown)
VH: B1 VH with Y33I, V100Y, F103Y
VL: B1 VL
notes: also called combination 11
B10: anti-cTnT Fab mutant 18 (V101Y) (Fab, V domains shown)
VH: B1 VH with W59F, V100Y, F103Y
VL: B1 VL
notes: it was tied to mutant 18 by the printed mutation V101Y; also called combination 18
B11: anti-cTnT Fab mutant 9 (Y34I) (Fab, V domains shown)
VH: B1 VH with Y33I, W59F, F103Y
VL: B1 VL
notes: also called combination 9
B12: anti-cTnT Fab mutant 13 (Y34I, F60W, V101Y + Y104F) (Fab, V domains shown)
VH: B1 VH with Y33I, V100Y
VL: B1 VL
notes: also called combination 13
B13: anti-cTnT Fab mutant 3 (Y34F, F60W, V101Y) (Fab, V domains shown)
VH: B1 VH with Y33F, V100Y, F103Y
VL: B1 VL
notes: also called combination 3
B14: anti-cTnT Fab mutant 7 (Y34F, Y104F) (Fab, V domains shown)
VH: B1 VH with Y33F, W59F
VL: B1 VL
notes: also called combination 7
B15: anti-cTnT Fab mutant 12 (Y34I, F60W, Y104F) (Fab, V domains shown)
VH: B1 VH with Y33I
VL: B1 VL
notes: also called combination 12; combination "12"
B16: anti-cTnT Fab mutant 23 (F60W, V101Y + Y104F) (Fab, V domains shown)
VH: B1 VH with V100Y
VL: B1 VL
notes: it was tied to mutant 23 by the printed mutations; also called combination 23
B17: anti-cTnT Fab mutant 8 (Y34F, V101Y + Y104F) (Fab, V domains shown)
VH: B1 VH with Y33F, W59F, V100Y
VL: B1 VL
notes: also called combination 8
B18: anti-cTnT Fab mutant 2 (Y34F, F60W) (Fab, V domains shown)
VH: B1 VH with Y33F, F103Y
VL: B1 VL
notes: also called combination 2
B19: anti-cTnT Fab mutant 15 (Y34I, Y104F) (Fab, V domains shown)
VH: B1 VH with Y33I, W59F
VL: B1 VL
notes: also called combination 15
B20: anti-cTnT Fab mutant 16 (Y34I, V101Y + Y104F) (Fab, V domains shown)
VH: B1 VH with Y33I, W59F, V100Y
VL: B1 VL
notes: also called combination 16
B21: anti-cTnT Fab mutant 20 (V101Y + Y104F) (Fab, V domains shown)
VH: B1 VH with W59F, V100Y
VL: B1 VL
notes: also called combination 20

These binders were tested against T1, recombinant human cardiac troponin T (human, UniProt P45379 2-298) (assay: SPR (Biacore T200, 37 C), Fab captured, cTnT analyte; Fab fragment).
T1 construct: In the ECL assay the cTnT came from the Troponin T hs CalSet calibrator; also called cTnT; TnT
Protocol: Detailed kinetic investigations were performed at 37° C. on a GE Healthcare T200 instrument. A Biacore CM-5 series S sensor was mounted into the instrument and was preconditioned according to the manufacturer's instructions. The system buffer was HBS-ET (10 mM HEPES (pH 7.4), 150 mM NaCl, 1 mM EDTA, 0.05% (w/v) Tween® 20). The sample buffer was the system buffer supplemented with 1 mg/ml CMD (Carboxymethyldextran, Fluka). In one embodiment an anti-human antibody capture system was established on the CMS biosensor. GAHF(ab′)2, (goat anti human F(ab′)2) (Code Nr.: 109-005-097, lot #13.12.2005, Jackson Immuno Research) was immobilized according to the manufacturer's instructions using NHS/EDC chemistry. 30 μg/ml GAHF(ab′)2 in 10 mM sodium acetate buffer (pH 5.0) were preconcentrated to the flow cells 1, 2, 3 and 4 and were immobilized with 10.000 RU GAHF(ab′)2. […]
Chimeric anti-TnT antibody fragments were periplasmatically expressed in E. coli cells as described and were lyzed by methods known (for technical details see: Andersen, D. C. & Reilly, D. E. (2004); Production technologies for monoclonal antibodies and their fragments. Curr Opin Biotechnol 15, 456-62). […] The Fab fragment capture level (CL) in response units (RU) was monitored. […] The analyte concentration series were 80 μl/min for 3 min association phase and the dissociation phase was monitored for 3 min. […]

Row | Kd | Binder
1 | 0.38 nM | B1

These binders were tested against T1, recombinant human cardiac troponin T (assay: SPR (Biacore T200, 37 C), Fab captured, cTnT analyte).
Protocol: Detailed kinetic investigations were performed at 37° C. on a GE Healthcare T200 instrument. A Biacore CM-5 series S sensor was mounted into the instrument and was preconditioned according to the manufacturer's instructions. The system buffer was HBS-ET (10 mM HEPES (pH 7.4), 150 mM NaCl, 1 mM EDTA, 0.05% (w/v) Tween® 20). The sample buffer was the system buffer supplemented with 1 mg/ml CMD (Carboxymethyldextran, Fluka). In one embodiment an anti-human antibody capture system was established on the CMS biosensor. GAHF(ab′)2, (goat anti human F(ab′)2) (Code Nr.: 109-005-097, lot #13.12.2005, Jackson Immuno Research) was immobilized according to the manufacturer's instructions using NHS/EDC chemistry. 30 μg/ml GAHF(ab′)2 in 10 mM sodium acetate buffer (pH 5.0) were preconcentrated to the flow cells 1, 2, 3 and 4 and were immobilized with 10.000 RU GAHF(ab′)2. The sensor was subsequently saturated with 1 M ethanolamine pH 8.5.
Chimeric anti-TnT antibody fragments were periplasmatically expressed in E. coli cells as described and were lyzed by methods known (for technical details see: Andersen, D. C. & Reilly, D. E. (2004); Production technologies for monoclonal antibodies and their fragments. Curr Opin Biotechnol 15, 456-62). The lysates were diluted 1:20 in sample buffer. Fab fragments were captured via their humanized framework regions from the expression lysates on the biosensor at a flow rate of 10 μl/min for 1 min followed by a 2 min washing step with 10-fold concentrated HBS-EP buffer at 30 μl/min. The Fab fragment capture level (CL) in response units (RU) was monitored. Recombinant human TnT (Roche, 37 kDa) was diluted in sample buffer at 90 nM and a concentration series was produced with […], 30 nM, 11 nM, 3.3 nM, 1.1 nM, 0 nM, 3.3 nM TnT concentration. The analyte concentration series were 80 μl/min for 3 min association phase and the dissociation phase was monitored for 3 min.
The kinetic parameters ka [1/Ms], kd [1/s], t1/2 diss [min], KD [M] and the binding stoichiometry (Molar Ratio) (for details see: Schraeml, M. & Biehl, M. (2012); Kinetic screening in the antibody development process. Methods Mol Biol 901, 171-81.) of the cTnT analyte were determined for each Fab fragment mutant with the Biaevaluation Software (GE healthcare) according to the manufacturer's instructions.

Row | Kd | MR (Molar Ratio) | koff | kon | t/2-diss | Binder
2 | 0.58 nM | 0.6 | 0.0014 s⁻¹ | 2.5e+06 M⁻¹ s⁻¹ | 8 min | B2
3 | 1.6 nM | 0.5 | 0.0043 s⁻¹ | 2.7e+06 M⁻¹ s⁻¹ | – | B3
4 | 0.27 nM | 0.7 | 0.00072 s⁻¹ | 2.7e+06 M⁻¹ s⁻¹ | 16 min | B4
5 | 0.62 nM | 0.7 | 0.0014 s⁻¹ | 2.3e+06 M⁻¹ s⁻¹ | 8 min | B5
6 | 0.23 nM | 0.7 | 0.00057 s⁻¹ | 2.4e+06 M⁻¹ s⁻¹ | 20 min | B6
7 | 0.46 nM | 0.8 | 0.0014 s⁻¹ | 2.9e+06 M⁻¹ s⁻¹ | 8 min | B7
8 | 0.54 nM | 0.7 | 0.0016 s⁻¹ | 2.9e+06 M⁻¹ s⁻¹ | 7 min | B8
9 | 1 nM | 0.7 | 0.0022 s⁻¹ | 2.2e+06 M⁻¹ s⁻¹ | 5 min | B9
10 | 1.6 nM | 0.5 | 0.0047 s⁻¹ | 2.9e+06 M⁻¹ s⁻¹ | 2 min | B10
11 | 1.2 nM | 0.7 | 0.0023 s⁻¹ | 2e+06 M⁻¹ s⁻¹ | 5 min | B11
12 | 0.62 nM | 0.7 | 0.0019 s⁻¹ | 3e+06 M⁻¹ s⁻¹ | 6 min | B12
13 | 0.37 nM | 0.7 | 0.00079 s⁻¹ | 2.1e+06 M⁻¹ s⁻¹ | 15 min | B13
14 | 0.45 nM | 0.7 | 0.0011 s⁻¹ | 2.4e+06 M⁻¹ s⁻¹ | 11 min | B14
15 | 0.32 nM | 0.5 | 0.00037 s⁻¹ | 1.18e+06 M⁻¹ s⁻¹ | 31 min | B15
16 | 1.2 nM | 0.6 | 0.0034 s⁻¹ | 2.8e+06 M⁻¹ s⁻¹ | 3 min | B16
17 | – | 0.7 | 0.0011 s⁻¹ | 3e+06 M⁻¹ s⁻¹ | 10 min | B1
18 | 0.2 nM | 0.7 | 0.00052 s⁻¹ | 2.7e+06 M⁻¹ s⁻¹ | 22 min | B17
19 | 0.46 nM | 0.7 | 0.001 s⁻¹ | 2.2e+06 M⁻¹ s⁻¹ | 11 min | B18
20 | 1.1 nM | 0.7 | 0.0023 s⁻¹ | 2.2e+06 M⁻¹ s⁻¹ | 5 min | B19
21 | 3.4 nM | 0.6 | 0.0059 s⁻¹ | 1.7e+06 M⁻¹ s⁻¹ | 2 min | B20
22 | 1.1 nM | 0.6 | 0.0034 s⁻¹ | 3.1e+06 M⁻¹ s⁻¹ | 3 min | B21

— patent publication US20210009668A1 (ROCHE DIAGNOSTICS OPERATIONS, published 2021)
